Source: patent US20240228645A1 (DRAGONFLY THERAPEUTICS, published 2024)
Positions count from the first letter of the chain named. Read-outs that look alike come from different tables or passages of the source.

B1: 10H7-C5 (antibody, V domains shown)
VH: EVQLVESGGGLVKPGGSLKLSCAASGFSFSRYAMSWVRQTPEKRLEWVATISDGGSYTHYRDNVKGRFTISRDNAKNNLNLQMSHLKSEDTAIYYCARNEMGLYFDYDVYAMDYWGQGTSVTVSS
VL: DIVMTQTPLSLPVSLGDQASISCRSSQSLLHSNGNTYLYWYLQKPGQSPKLLIHRVSNRFSGVPDRFGGSGSGTDFTLKIIRVEAEDLGVYFCFQGTHVPWTFGGGTKLEIK
notes: Hybridoma clone from DNA-immunized SWR/J mice; also called clone 10H7-C5
B2: 1B3-A7 (antibody, V domains shown)
VH: EVQLVESGGGLVKPGGSLKLSCVVSGFTFSNYAMSWVRQTPEKRLEWVATISDGGGYTYYPDSVKGRFTISRDNAKNNLYLQMSHLKSEDTAIYYCARDDLGGGNYVSSYFDVWGTGTTVTVSS
VL: B1 VL with I2V, L15P, L30V, H54Y, G68S, I81N, W101L, G105S, I111L
notes: Hybridoma clone from DNA-immunized SWR/J mice; also called clone 1B3-A7
B3: 3A1 (antibody, V domains shown)
VH: QVQLQQPGAELVKPGASVKLSCKASGYTFTSYWMHWVKQRPGQGLEWIGEIDPFDSYTNYNQNFKGKATLTVDKSSSTAYMLLSSLTSDDSAVYYCARERLRLWSYYFDYWGQGTTLTVSS
VL: DVVMTQTPLSLPVSLGDQASISCRSSQSIVHSNGNTYLEWYLQKPGQSPKLLIYKVSNRLSGVPDRFSGSGSGTDFTLKISRVEAEDLGVYYCFQGSHDPFTFGSGTKLEIK
notes: Hybridoma clone from DNA-immunized SWR/J mice; also called clone 3A1
B4: 7G4 (antibody, V domains shown)
VH: B3 VH with I51V, F54S, N63K, M81I, S85N, L101V, Y107F
VL: B3 VL
notes: Hybridoma clone from DNA-immunized SWR/J mice; also called clone 7G4

Columns and labels:
[1] = target: T1, human BAFF-R expressed on cells (hBAFF-R-CHO isogenic CHO cells; BAFF-R+ cancer cells) (human, UniProt Q96RJ3 1-184); assay: flow cytometry on hBAFFR-CHO cells, anti-mouse IgG(H+L)-PE
T1 construct: whole, on cells; also called hBAFF-R^+ cells; BAFF-R+ CHO cells

[2] = target: T1, human BAFF-R expressed on cells …; assay: as above; remark: listed apart in the source

Row | Binder | EC50 (read off the curve) [1] [nM] | EC50 (read off the curve) [2] [nM]
1 | B1 | ~1 | 
2 | B2 | 1 to 2 | 
3 | B3 |  | ~0.3
4 | B4 |  | ~0.3
